Among the targets are K3; linear peptide K1; K4; K2.
What all share (assay): SPR
Experiment [1] addresses long-acting C5a-blocking cyclic peptide drug Cp1 (head-tail cyclization of the linear peptide K1).

Results on four molecules are retold here after paper PMC12586598 (2025).

As a reminder, the Kd is the free concentration of one partner at which half of the binding sites on the other are occupied at equilibrium, for simple one-to-one binding. Higher therefore signals a looser complex. In general, koff refers to a measure of how fast the partners let go of each other. A low value points to slow dissociation.

B1: mouse C5a protein (ligand)
chain: NLHLLRQKIEEQAAKYKHSVPKKCCYDGARVNFYETCEERVARVTIGPLCIRAFNECCTIANKIRKESPHKPVQLGR
Regarding B1, the Kd with K3 is 7.12 µM; in the experiment with linear peptide K1, 2.85 µM; with K4, 2.38 µM; with K2, 53.6 µM; in experiment [1], 5.63 µM. Besides, the koff is 0.392 s⁻¹ in the experiment with K3, 0.00586 s⁻¹ in the experiment with linear peptide K1, 0.0299 s⁻¹ with K4 and 0.00405 s⁻¹ with K2.

B2: mouse C5a-desArg (ligand)
chain: B1 chain
In experiment [1], B2 had a Kd of 3.58 µM. This lies in the single-digit micromolar range.

B3: human C5a protein (ligand)
chain: TLQKKIEEIAAKYKHSVVKKCCYDGACVNNDETCEQRAARISLGPRCIKAFTECCVVASQLRANISHKDMQLGR
With B3, in experiment [1], the Kd is 7.41 µM and the koff was found to be 0.395 s⁻¹.

B4: mouse C5 (natural protein)
chain 1: QEQTYVISAPKILRVGSSENVVIQVHGYTEAFDATLSLKSYPDKKVTFSSGYVNLSPENKFQNAALLTLQPNQVPREESPVSHVYLEVVSKHFSKSKKIPITYNNGILFIHTDKPVYTPDQSVKIRVYSLGDDLKPAKRETVLTFIDPEGSEVDIVEENDYTGIISFPDFKIPSNPKYGVWTIKANYKKDFTTTGTAYFEIKEYVLPRFSVSIELERTFIGYKNFKNFEITVKARYFYNKVVPDAEVYAFFGLREDIKDEEKQMMHKATQAAKLVDGVAQISFDSETAVKELSYNSLEDLNNKYLYIAVTVTESSGGFSEEAEIPGVKYVLSPYTLNLVATPLFVKPGIPFSIKAQVKDSLEQAVGGVPVTLMAQTVDVNQETSDLETKRSITHDTDGVAVFVLNLPSNVTVLKFEIRTDDPELPEENQASKEYEAVAYSSLSQSYIYIAWTENYKPMLVGEYLNIMVTPKSPYIDKITHYNYLILSKGKIVQYGTREKLFSSTYQNINIPVTQNMVPSARLLVYYIVTGEQTAELVADAVWINIEEKCGNQLQVHLSPDEYVYSPGQTVSLDMVTEADSWVALSAVDRAVYKVQGNAKRAMQRVFQALDEKSDLGCGAGGGHDNADVFHLAGLTFLTNANADDSHYRDDSCKEIL
chain 2: NLHLLRQKIEEQAAKYKHSVPKKCCYDGARVNFYETCEERVARVTIGPLCIRAFNECCTIANKIRKESPHKPVQLGRIHIKTLLPVMKADIRSYFPESWLWEIHRVPKRKQLQVTLPDSLTTWEIQGIGISDNGICVADTLKAKVFKEVFLEMNIPYSVVRGEQIQLKGTVYNYMTSGTKFCVKMSAVEGICTSGSSAASLHTSRPSRCVFQRIEGSSSHLVTFTLLPLEIGLHSINFSLETSFGKDILVKTLRVVPEGVKRESYAGVILDPKGIRGIVNRRKEFPYRIPLDLVPKTKVERILSVKGLLVGEFLSTVLSKEGINILTHLPKGSAEAELMSIAPVFYVFHYLEAGNHWNIFYPDTLSKRQSLEKKIKQGVVSVMSYRNADYSYSMWKGASASTWLTAFALRVLGQVAKYVKQDENSICNSLLWLVEKCQLENGSFKENSQYLPIKLQGTLPAEAQEKTLYLTAFSVIGIRKAVDICPTMKIHTALDKADSFLLENTLPSKSTFTLAIVAYALSLGDRTHPRFRLIVSALRKEAFVKGDPPIYRYWRDTLKRPDSSVPSSGTAGMVETTAYALLASLKLKDMNYANPIIKWLSEEQRYGGGFYSTQDTINAIEGLTEYSLLLKQIHLDMDINVAYKHEGDFHKYKVTEKHFLGRPVEVSLNDDLVVSTGYSSGLATVYVKTVVHKISVSEEFCSFYLKIDTQDIEASSHFRLSDSGFKRIIACASYKPSKEESTSGSSHAVMDISLPTGIGANEEDLRALVEGVDQLLTDYQIKDGHVILQLNSIPSRDFLCVRFRIFELFQVGFLNPATFTVYEYHRPDKQCTMIYSISDTRLQKVCEGAACTCVEADCAQLQAEVDLAISADSRKEKACKPETAYAYKVRITSATEENVFVKYTATLLVTYKTGEAADENSEVTFIKKMSCTNANLVKGKQYLIMGKEVLQIKHNFSFKYIYPLDSSTWIEYWPTDTTCPSCQAFVENLNNFAEDLFLNSCE
In experiment [1], B4 showed a Kd of 0.712 µM and a dissociation rate constant (koff) of 0.0745 s⁻¹.
